The numbers were not newly measured in patent US20220223299A1, “METHODS AND APPARATUSES FOR MODELING, SIMULATING, AND TREATING HEREDITARY ANGIOEDEMA” (Takeda Pharmaceutical Company Limited, priority 2019, published 2022), which cites them from elsewhere.

The target in one series is T1, FXIIa (Homo sapiens, UniProt P00748).
T1 sequence (P00748 20-372 partner limits assumed): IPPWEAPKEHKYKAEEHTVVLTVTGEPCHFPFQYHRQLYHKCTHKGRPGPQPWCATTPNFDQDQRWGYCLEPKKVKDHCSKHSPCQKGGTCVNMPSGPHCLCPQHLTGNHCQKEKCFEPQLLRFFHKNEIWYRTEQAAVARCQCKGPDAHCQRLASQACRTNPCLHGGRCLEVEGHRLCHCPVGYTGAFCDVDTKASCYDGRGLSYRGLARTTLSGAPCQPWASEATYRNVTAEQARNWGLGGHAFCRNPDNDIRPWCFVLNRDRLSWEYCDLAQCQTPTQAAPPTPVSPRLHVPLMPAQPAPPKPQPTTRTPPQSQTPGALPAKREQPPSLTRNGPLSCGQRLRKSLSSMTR
T1 sequence (P00748 373-615 limits assumed): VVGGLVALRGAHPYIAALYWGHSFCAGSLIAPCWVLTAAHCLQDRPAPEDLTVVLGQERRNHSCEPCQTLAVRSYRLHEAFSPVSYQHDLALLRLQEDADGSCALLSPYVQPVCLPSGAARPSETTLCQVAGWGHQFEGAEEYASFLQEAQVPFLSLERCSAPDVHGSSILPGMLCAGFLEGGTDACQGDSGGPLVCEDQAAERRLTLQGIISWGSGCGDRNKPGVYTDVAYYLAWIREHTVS
The note with it: FXIIa in plasma and FXIIa_gC1qR.

In another series the target is T2, KAL (kallikrein) (Homo sapiens, UniProt P03952).
T2 construct: The preKAL is cleaved by FXIIa resulting in KAL, the two-chain enzyme kallikrein
To be noted: KAL in plasma, KAL_HMWK in plasma and KAL_HMWK_gC1qR.

The next series deals with T3, KAL (plasma kallikrein) (Homo sapiens, UniProt P03952).
T3 construct: The preKAL is cleaved by FXIIa resulting in KAL, the two-chain enzyme kallikrein
The note with it: KAL in plasma, KAL_HMWK in plasma and KAL_HMWK_gC1qR.

The conditions of series [1]: in vivo.

T2 sequence (P03952 20-390 partner limits assumed): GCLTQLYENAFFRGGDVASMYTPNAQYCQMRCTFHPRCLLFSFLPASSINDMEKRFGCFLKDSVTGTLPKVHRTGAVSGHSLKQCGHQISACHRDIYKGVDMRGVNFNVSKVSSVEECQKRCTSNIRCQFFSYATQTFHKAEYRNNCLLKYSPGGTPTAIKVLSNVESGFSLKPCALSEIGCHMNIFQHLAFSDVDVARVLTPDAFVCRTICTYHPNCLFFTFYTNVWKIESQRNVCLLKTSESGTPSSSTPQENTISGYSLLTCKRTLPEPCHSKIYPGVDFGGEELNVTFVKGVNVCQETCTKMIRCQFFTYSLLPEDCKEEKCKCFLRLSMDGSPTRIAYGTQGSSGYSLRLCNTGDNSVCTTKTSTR
T2 sequence (P03952 391-638 limits assumed): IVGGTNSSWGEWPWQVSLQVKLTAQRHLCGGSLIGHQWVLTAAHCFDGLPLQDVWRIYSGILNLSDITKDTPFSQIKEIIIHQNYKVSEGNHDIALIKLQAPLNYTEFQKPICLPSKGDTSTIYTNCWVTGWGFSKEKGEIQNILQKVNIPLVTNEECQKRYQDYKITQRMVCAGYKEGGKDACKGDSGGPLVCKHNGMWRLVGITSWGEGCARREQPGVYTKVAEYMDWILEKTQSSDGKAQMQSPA
T3 sequence (P03952 20-390 partner limits assumed): as the sequence (P03952 20-390 partner limits assumed) above
T3 sequence (P03952 391-638 limits assumed): as the sequence (P03952 391-638 limits assumed) above

Regarding “C1Inh: C1 inhibitor protein; binds to and inhibits both Factor XIIa and kallikrein”, in the series with FXIIa, the koff_C1Inh_FXIIa was 0.06364 s⁻¹ and the kon_C1Inh_FXIIa is 37000 M⁻¹ s⁻¹. Also, in the series with FXIIa (read-out: Kd_C1Inh_FXIIa), the Kd is 1720 nM. Besides, in the series with KAL (kallikrein), the koff_C1Inh_KAL is 0.00255 s⁻¹ and the kon_C1Inh_KAL is 17000 M⁻¹ s⁻¹. The Kd with KAL (kallikrein) (read-out: Kd_C1Inh_KAL) was 150 nM. Also, the “kdeg_C1Inh, degradation rate for C1Inh” value (vascular space) is 4.58e-06 s⁻¹. Also, the “kdeg_Bound_C1Inh, degradation rate for bound C1Inh” value (vascular space, bound C1Inh) is 0.0038508 s⁻¹.

B1: Lanadelumab: fully human IgG1 recombinant monoclonal antibody inhibitor of activated plasma kallikrein (antibody, chains of the INN, looked up, V domains shown)
VH: EVQLLESGGGLVQPGGSLRLSCAASGFTFSHYIMMWVRQAPGKGLEWVSGIYSSGGITVYADSVKGRFTISRDNSKNTLYLQMNSLRAEDTAVYYCAYRRIGVPRRDEFDIWGQGTMVTVSS
VL: DIQMTQSPSTLSASVGDRVTITCRASQSISSWLAWYQQKPGKAPKLLIYKASTLESGVPSRFSGSGSGTEFTLTISSLQPDDFATYYCQQYNTYWTFGQGTKVEIK
Usually half-life stands for the time in which the quantity being followed falls by half. With B1, in the series with KAL (plasma kallikrein), the koff_KAL_Lanadelumab is 0.0004033 s⁻¹ and the kon_KAL_Lanadelumab is 3.36e+06 M⁻¹ s⁻¹. The Kd in the series with KAL (plasma kallikrein) (read-out: Kd_KAL_Lanadelumab) was 0.12 nM. In series [1], the half-life is given as 14 days. Besides, where the note is “proximal space”, the kdeg Lanadelumab KAL HMWK gC1qR, degradation rate for Lanadelumab bound with KAL HMWK gC1qR receptor complex is 9.63e-05 s⁻¹.
